Marks after values point to notes of the source that are not given here.
What was measured:
cultured spinal neurons = assay: Narp overexpression in transfected cultured spinal neurons; assay type: cell-based
Description: In order to characterize the synaptic targeting of Narp in neurons, a C-terminal myc-tagged version of Narp (designated myc-Narp) was transfected into cultured spinal neurons (Dong et al., Nature 386:279-84, 1997). After 72 hours of expression, live staining with an anti-myc (mouse) antibody, followed by a FITC labeled anti-mouse secondary, was used to reveal the surface distribution of the transfected Narp. Subsequent staining of the same cells, after fixation and permeabilization, with an AMCA labeled anti-myc (rabbit) antibody was used to identify transfected neurons and their axons and dendrites, while GluR1 and GAD staining were used to identify excitatory and inhibitory synapses, respectively.
Given the presence of Narp on both pre and postsynaptic processes and the biochemical propensity of pentraxins to form head to head multimeric aggregates (Emsley et al., Nature 367, 338-45, 1994; Gewurz et al., Curr. Opin. Immunol. 7:54-64, 1995; Bottazzi et al., J. Biol. Chem. 272:32817-23, 1997), the possibility that Narp may function to facilitate the formation of excitatory synapses was explored. Thus, the number of synaptic GluR1 clusters (i.e., GluR1 clusters associated with synaptophysin staining) in transfected neurons over expressing myc-Narp was compared with the number of synaptic GluR1 clusters in untransfected neurons or in neurons transfected with a control plasmid containing the C-terminus of the NMDA receptor subunit NR1A (NR1CT).

[1] = target: T1, HA GluR1 surface diffusion (Homo sapiens, UniProt P42261); assay: Single Quantum Dot Tracking of HA-tagged receptors on hippocampal neurons; assay type: cell-based, mouse
T1 construct: expressed in transfected cells; host or cells: dissociated mouse hippocampal neurons (P1-3 pups)
Description: (§1) Single Quantum Dot (QD) Tracking. Hippocampal neurons were prepared from postnatal days 1-3 mouse pups and cultured in Banker Style conditions to 6 D. I. V., 8 D. I. V., or 11 D. I. V. Cultured hippocampal neurons were transfected as above. 0.5 μL of QD 655 mouse IgG (QuantumDot Corporation) was incubated with 0.8 μg of HA antibody (Santa Cruz) in a 20 μL volume of PBS for 1 hour at room temperature. Neurons were incubated in a 1:500 dilution of this QD solution for 15 minutes at 37° C., 5% CO2. After brief washes with culture media, the neurons were mounted on a live imaging chamber with culture media/10 mM Hepes. Transfected neurons were identified based on GFP fluorescence. 100 millisecond exposure images were collected from neurons at a frequency of 2.67 Hz for 60 seconds with a coolsnap HQ (Photometrix). The graphical and numerical representation of the trajectory of each QD was extracted from each stack of images using the Motion Analysis Package of Metamorph (Universal Imaging Corporation). The numerical representation of the trajectory was used to calculate a diffusion coefficient using MSD software. Analysis was performed blinded.
(§2) Narp reduces surface diffusion of GluR1 but not GluR1ΔNAR1. GluR1ΔNAR1 was used to examine the hypothesis that Narp and NP1 function to limit the diffusion of receptors, and thereby recruit GluR1 to synapses. As part of a validation of GluR1ΔNAR1 for cell biological studies it was confirmed that it retained agonist-dependent channel activity. […] The mobility of HA GluR1 relative to HA GluR1ΔNAR1 on the surface of neuronal dendrites were compared using 5 nm fluorescent Quantum Dots (QDs) and Single Quantum Dot Tracking (SQDT). Dissociated hippocampal cultures (DIV 6) were transfected with HA GluR1-IRES2-GFP or HA-GluR1ΔNAR1-IRES2-GFP. […] QD-HA-GluR1 and QD-HA-GluR1ΔNAR1 were visualized by live, time-lapse fluorescence imaging. The trajectories of QD-coupled receptors were determined by the position of the QD in each frame, and the receptor diffusion coefficients were calculated from QD trajectories over multiple trials. […]

[2] = target: T2, HA GluR1 surface diffusion (Homo sapiens, UniProt P42261, A320G/C323G/D322G/DEL281-317/N319G); assay: as above; assay type: cell-based, mouse; settings: 7 D. I. V., Narp transgene
T2 construct: expressed in transfected cells; host or cells: dissociated mouse hippocampal neurons (P1-3 pups)
Description: as §1, §2

[3] = tested on: GluR1 expressing 293 cells; assay: Co-culture of separately transfected 293 cells, intercellular clustering; assay type: cell-based
Source text: To evaluate whether Narp could mediate intercellular aggregation of GluR1, similar to that expected at a synapse, myc-tagged Narp and GluR1 were expressed separately in 293 cells and subsequently co-cultured together. Under these conditions, surface Narp clusters on one cell could induce large surface GluR1 aggregates on another. In a total of 109 contacts between a GluR1 expressing transfected cell and a Narp expressing cell, there was a mean of 1.2+/−0.75 large overlapping GluR1/myc-Narp clusters at these sites of contact. […] Moreover, the number of GluR1 clusters at sites of contact with non-Narp expressing 293 cells was extremely low [0.07 R1 clusters per contact with a GluR2 expressing cell (n=76); 0.03 R1 clusters per contact with a Pick1/GluR2 expressing cell (n=58)]. The interaction between GluR1 and Narp required contact between the heterologous cells, as there was no evidence that Narp could diffuse from one cell and induce GluR1 clusters on another.

[4] = tested on: GluR1 on cultured spinal neurons; assay: Co-culture of myc-Narp expressing 293 cells with spinal neurons; assay type: cell-based
Description: The neurons and transfected HEK-293 cells were cocultured for 48 hours and then fixed and stained for myc-Narp, GluR1 and synapsin. When contacts between myc-Narp expressing 293 cells and GluR1 expressing spinal neurons were examined for overlapping myc-Narp/GluR1 clusters, 64% (82/128) of the myc-Narp clusters in contact with the neuron overlapped with neuronal GluR1 clusters (mean of 2.6+/−1.5 overlapping myc-Narp/GluR1 clusters per 293-neuron contact).

[5] = transfected neurons, +/- S.D., 5 experiments

T1 sequence (P42261 19-906): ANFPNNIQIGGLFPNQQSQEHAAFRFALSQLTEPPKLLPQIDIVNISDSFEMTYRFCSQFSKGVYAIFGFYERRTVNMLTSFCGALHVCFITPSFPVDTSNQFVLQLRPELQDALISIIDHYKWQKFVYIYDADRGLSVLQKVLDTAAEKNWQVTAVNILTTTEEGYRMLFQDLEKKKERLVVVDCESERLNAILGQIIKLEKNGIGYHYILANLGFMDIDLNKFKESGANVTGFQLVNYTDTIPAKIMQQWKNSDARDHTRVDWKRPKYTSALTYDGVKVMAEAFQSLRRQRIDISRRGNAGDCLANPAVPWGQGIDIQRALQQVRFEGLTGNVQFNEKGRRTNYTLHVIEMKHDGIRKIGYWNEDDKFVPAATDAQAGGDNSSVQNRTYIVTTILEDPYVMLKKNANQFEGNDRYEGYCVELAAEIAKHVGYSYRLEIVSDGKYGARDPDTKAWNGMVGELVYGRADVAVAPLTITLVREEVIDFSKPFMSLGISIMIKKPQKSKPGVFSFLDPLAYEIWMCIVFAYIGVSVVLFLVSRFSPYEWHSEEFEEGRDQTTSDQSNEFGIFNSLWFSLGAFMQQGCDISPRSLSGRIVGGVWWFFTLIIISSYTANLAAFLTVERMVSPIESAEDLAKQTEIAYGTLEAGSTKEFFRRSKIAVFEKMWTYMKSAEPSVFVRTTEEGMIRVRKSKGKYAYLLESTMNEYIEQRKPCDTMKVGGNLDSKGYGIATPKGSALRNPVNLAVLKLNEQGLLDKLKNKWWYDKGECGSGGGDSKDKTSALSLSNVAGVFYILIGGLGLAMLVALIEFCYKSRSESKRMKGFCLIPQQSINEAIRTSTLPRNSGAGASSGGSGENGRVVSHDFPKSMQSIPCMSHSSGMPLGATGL
T2 sequence (P42261 with tags, fused parts or gaps DEL281-317/N319G/A320G/D322G/C323G): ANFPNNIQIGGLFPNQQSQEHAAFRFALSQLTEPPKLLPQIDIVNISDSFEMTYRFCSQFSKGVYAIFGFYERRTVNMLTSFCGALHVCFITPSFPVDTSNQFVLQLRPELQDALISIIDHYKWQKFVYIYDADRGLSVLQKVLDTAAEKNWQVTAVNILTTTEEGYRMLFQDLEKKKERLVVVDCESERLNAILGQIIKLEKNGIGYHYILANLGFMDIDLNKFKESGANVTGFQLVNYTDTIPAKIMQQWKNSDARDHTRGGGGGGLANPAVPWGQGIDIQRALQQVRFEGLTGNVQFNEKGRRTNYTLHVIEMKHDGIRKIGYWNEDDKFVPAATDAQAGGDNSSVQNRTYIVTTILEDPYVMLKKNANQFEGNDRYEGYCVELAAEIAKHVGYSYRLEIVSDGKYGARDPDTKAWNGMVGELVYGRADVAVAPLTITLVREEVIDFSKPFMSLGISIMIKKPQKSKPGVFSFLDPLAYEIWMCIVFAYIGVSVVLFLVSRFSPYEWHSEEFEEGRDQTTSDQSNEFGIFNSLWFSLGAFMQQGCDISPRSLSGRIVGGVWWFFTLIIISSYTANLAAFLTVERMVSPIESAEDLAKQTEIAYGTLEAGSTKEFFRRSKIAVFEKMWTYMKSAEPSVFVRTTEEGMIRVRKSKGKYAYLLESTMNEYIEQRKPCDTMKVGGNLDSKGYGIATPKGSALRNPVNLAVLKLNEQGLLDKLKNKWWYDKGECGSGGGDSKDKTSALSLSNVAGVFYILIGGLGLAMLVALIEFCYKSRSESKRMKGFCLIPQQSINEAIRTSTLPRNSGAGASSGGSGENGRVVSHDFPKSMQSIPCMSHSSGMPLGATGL

B1: Narp: Neuronal activity regulated pentraxin (SEQ ID NO:2), expressed by transfection, also as C-terminal myc-tagged version (protein, listed as Rattus norvegicus)
chain: MLALLTAGVALAVAAGQAQDNPIPGSRFVCTALPPEAARAGCPLPAMPMQGGALSPEEELRAAVLHWRETVVQQKETLGAQREAIRELTSKLARCEGLAGGKARGTGATGKDTMGDLPRDPGHVVEQLSRSLQTLKDRLESLELQLHTNASNAGLPSDFREVLQRRLGELERQLLRKVAELEDEKSLLHNETSAHRQKTENTLNALLQRVTELERGNSAFKSPDAFKVSLPLRTNYLYGKIKKTLPELYAFTICLWLRSSASPGIGTPFSYAVPGQANEIVLIEWGNNPIELLINDKVAQLPLFVSDGKWHHICITWTTRDGMWEAFQDGEKLGTGENLAPWHPIKPGGVLILGQEQDTVGGRFDATQAFVGELSQFNIWDRVLRAQEIINIANCSTNMPGNIIPWVDNNVDVFGGASKWPVETCEERLLDL
modifications: optional C-terminal myc tag
increase in number of synaptic GluR1 clusters compared to either control (cultured spinal neurons; five transfection experiments, p<0.01): 1.9 fold | Synaptic GluR1 Clusters (cultured spinal neurons; [5]): 13.0 +/− 3.8 ** | Synaptophysin Clusters (cultured spinal neurons; [5]): 16.0 +/− 4.6 * | Neuritic Length (cultured spinal neurons; transfected neurons, permeablized myc staining at 100X, 3 experiments): 225 µm | GAD Clusters (cultured spinal neurons; transfected neurons, separate series of 3 experiments): 5.9 +/− 3.9 | slowing of HA GluR1 average diffusion rate versus absence of Narp transgene ([1]; 7 D. I. V.): 58% | slowing of HA GluR1 diffusion in the presence of the Narp transgene ([1]; 9 D. I. V.): 44% | HA-GluR1ΔNAR1 average diffusion rate [2]: not significantly altered | large overlapping GluR1/myc-Narp clusters at sites of contact ([3]; 109 contacts between a GluR1 expressing cell and a Narp expressing cell): 1.2+/−0.75 | coclusters of NR1 and NR2A ([3]; n=32 contacts): 0 | clusters of EAAC1 at sites of contact ([3]; n=121): 0.04+/−0.05 | intercellular myc-Narp*GluR1 co-clusters ([3]; untagged Narp co-expressed with GluR1, co-cultured with cells expressing only myc-tagged Narp, n=124): 2.6+/−1.4 | myc-Narp clusters in contact with the neuron overlapping with neuronal GluR1 clusters ([4]; 48 hours coculture): 64% | overlapping myc-Narp/GluR1 clusters per 293-neuron contact ([4]; 48 hours coculture): 2.6+/−1.5 | bioactivity of soluble Narp collected from the media (binding to transfected 293 cells) ([4]; soluble secreted form): no bioactivity

From patent US20090123940A1, “MOLECULES INVOLVED IN SYNAPTOGENESIS AND USES THEREFOR” (THE JOHNS HOPKINS UNIVERSITY, priority 2007, published 2009)
